The target in series [1] is T1, variant nuclease L38G combination (P14R, D32R, I61R, E311R, L38G).
T1 chain: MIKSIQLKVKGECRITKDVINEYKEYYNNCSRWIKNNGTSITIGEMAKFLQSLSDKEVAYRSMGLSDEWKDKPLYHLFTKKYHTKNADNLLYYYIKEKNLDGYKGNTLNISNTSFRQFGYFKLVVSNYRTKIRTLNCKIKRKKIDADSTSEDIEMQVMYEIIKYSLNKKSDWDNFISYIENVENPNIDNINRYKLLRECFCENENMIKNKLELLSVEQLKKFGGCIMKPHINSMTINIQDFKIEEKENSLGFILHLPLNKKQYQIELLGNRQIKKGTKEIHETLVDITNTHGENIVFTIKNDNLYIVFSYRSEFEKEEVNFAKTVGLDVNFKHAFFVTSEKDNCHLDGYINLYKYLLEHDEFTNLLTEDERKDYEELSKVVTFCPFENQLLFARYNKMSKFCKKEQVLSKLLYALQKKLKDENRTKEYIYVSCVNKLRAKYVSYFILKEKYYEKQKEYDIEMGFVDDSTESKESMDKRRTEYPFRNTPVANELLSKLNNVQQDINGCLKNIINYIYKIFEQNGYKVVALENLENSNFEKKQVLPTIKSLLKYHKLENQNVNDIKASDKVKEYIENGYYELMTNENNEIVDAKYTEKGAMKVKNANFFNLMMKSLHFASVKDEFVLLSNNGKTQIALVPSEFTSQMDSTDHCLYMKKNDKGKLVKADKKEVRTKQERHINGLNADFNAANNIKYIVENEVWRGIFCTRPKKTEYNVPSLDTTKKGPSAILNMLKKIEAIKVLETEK
Nature of the series: cell_activity; PAM 5'-TTTA-3'. The conditions noted are these: tags: pcDNA3.1 expression. The method, boiled down: (§1)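 HEK293T cells were lipofected with nuclease plasmid (pcDNA3.1 backbone) plus RNA guide plasmid, with guide omitted in negative controls. After ~72 h cells were lysed in QuickExtract and % indels were derived from NGS reads, averaged over two bioreplicates and two technical replicates.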

The target of series [2] is T2, variant nuclease D55G/E736G combination (P14R, D32R, I61R, E311R, D55G, E736G).
T2 chain: T1 chain with G38L, D55G, E736G
Description: cell_activity; PAM 5'-TTTA-3'. As to conditions: tags: pcDNA3.1 expression. An outline of the steps:
as §1

Numbering of substitutions follows the chain as printed.

B1: VEGFA crRNA ; VEGFA target (ssRNA ; dsDNA)
RNA: CUUGUUGUAUAUGUCCUUUUAUAGGUAUUAAACAACUCCAGACCACCAAUGGGCAC
DNA 1: TCCAGACCACCAATGGGCAC
DNA 2: GTGCCCATTGGTGGTCTGGA
Regarding B1, the indel activity in series [1] was 0.22 fold of WT; in series [2] it was 3.06 fold of WT.

The values are drawn from patent publication US20240035010, “COMPOSITIONS COMPRISING A VARIANT POLYPEPTIDE AND USES THEREOF” (Arbor Biotechnologies, Inc., published 2024).
